Experimental data from publication PMC2770179 (Journal of molecular catalysis. B, Enzymatic, 2009).

Assays:
[1] = biological target: T1, L2S of hE2 (residues 128-330) mutant K276A (human, UniProt P10515 214-416, K276A); test: SPR
T1 sequence (looked up): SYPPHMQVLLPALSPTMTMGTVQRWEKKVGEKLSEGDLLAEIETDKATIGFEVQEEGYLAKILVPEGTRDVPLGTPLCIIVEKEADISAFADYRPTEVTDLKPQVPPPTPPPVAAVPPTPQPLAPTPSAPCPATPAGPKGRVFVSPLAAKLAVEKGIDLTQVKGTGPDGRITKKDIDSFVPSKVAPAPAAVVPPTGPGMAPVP

[2] = biological target: T2, L2S of hE2 (residues 128-330) mutant R297A (human, UniProt P10515 214-416, R297A); test: SPR
T2 sequence (looked up): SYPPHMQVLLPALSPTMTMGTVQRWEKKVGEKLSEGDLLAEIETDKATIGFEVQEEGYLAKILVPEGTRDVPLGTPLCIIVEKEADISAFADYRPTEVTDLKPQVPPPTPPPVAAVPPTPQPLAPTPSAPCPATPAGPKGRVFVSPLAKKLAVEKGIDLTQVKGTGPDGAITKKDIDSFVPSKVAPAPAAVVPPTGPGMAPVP

B1: human pyruvate dehydrogenase (E1), wild type, α2β2 heterotetramer (complex)
chain 1: FANDATFEIKKCDLHRLEEGPPVTTVLTREDGLKYYRMMQTVRRMELKADQLYKQKIIRGFCHLCDGQEACCVGLEAGINPTDHLITAYRAHGFTFTRGLSVREILAELTGRKGGCAKGKGGSMHMYAKNFYGGNGIVGAQVPLGAGIALACKYNGKDEVCLTLYGDGAANQGQIFEAYNMAALWKLPCIFICENNRYGMGTSVERAAASTDYYKRGDFIPGLRVDGMDILCVREATRFAAAYCRSGKGPILMELQTYRYHGHSMSDPGVSYRTREEIQEVRSKSDPIMLLKDRMVNSNLASVEELKEIDVEVRKEIEDAAQFATADPEPPLEELGYHIYSSDPPFEVRGANQWIKFKSVS
chain 2: LQVTVRDAINQGMDEELERDEKVFLLGEEVAQYDGAYKVSRGLWKKYGDKRIIDTPISEMGFAGIAVGAAMAGLRPICEFMTFNFSMQAIDQVINSAAKTYYMSGGLQPVPIVFRGPNGASAGVAAQHSQCFAAWYGHCPGLKVVSPWNSEDAKGLIKSAIRDNNPVVVLENELMYGVPFEFPPEAQSKDFLIPIGKAKIERQGTHITVVSHSRPVGHCLEAAAVLSKEGVECEVINMRTIRPMDMETIEASVMKTNHLVTVEGGWPQFGVGAEICARIMEGPAFNFLDAPAVRVTGADVPMPYAKILEDNSIPQVKDIIFAIKKTLNI
- fold increase in KD against wild-type L2S [1]: ~86 fold
- fold increase in KD against wild-type L2S [2]: 6.8 fold
